Data on two substances can be found in patent publication US20220062373A1.

The target of this test is Endogenous murine CD206 on M2-polarized bone marrow-derived macrophages (mouse) (UniProt Q61830). The experiment in a line: LC-MS/MS proteomics of CD206 complexes pulled down with biotinylated RP-182 from M2 BMDMs.
Sequence of Endogenous murine CD206 on M2-polarized bone marrow-derived macrophages (mouse) (Q61830 20-1456): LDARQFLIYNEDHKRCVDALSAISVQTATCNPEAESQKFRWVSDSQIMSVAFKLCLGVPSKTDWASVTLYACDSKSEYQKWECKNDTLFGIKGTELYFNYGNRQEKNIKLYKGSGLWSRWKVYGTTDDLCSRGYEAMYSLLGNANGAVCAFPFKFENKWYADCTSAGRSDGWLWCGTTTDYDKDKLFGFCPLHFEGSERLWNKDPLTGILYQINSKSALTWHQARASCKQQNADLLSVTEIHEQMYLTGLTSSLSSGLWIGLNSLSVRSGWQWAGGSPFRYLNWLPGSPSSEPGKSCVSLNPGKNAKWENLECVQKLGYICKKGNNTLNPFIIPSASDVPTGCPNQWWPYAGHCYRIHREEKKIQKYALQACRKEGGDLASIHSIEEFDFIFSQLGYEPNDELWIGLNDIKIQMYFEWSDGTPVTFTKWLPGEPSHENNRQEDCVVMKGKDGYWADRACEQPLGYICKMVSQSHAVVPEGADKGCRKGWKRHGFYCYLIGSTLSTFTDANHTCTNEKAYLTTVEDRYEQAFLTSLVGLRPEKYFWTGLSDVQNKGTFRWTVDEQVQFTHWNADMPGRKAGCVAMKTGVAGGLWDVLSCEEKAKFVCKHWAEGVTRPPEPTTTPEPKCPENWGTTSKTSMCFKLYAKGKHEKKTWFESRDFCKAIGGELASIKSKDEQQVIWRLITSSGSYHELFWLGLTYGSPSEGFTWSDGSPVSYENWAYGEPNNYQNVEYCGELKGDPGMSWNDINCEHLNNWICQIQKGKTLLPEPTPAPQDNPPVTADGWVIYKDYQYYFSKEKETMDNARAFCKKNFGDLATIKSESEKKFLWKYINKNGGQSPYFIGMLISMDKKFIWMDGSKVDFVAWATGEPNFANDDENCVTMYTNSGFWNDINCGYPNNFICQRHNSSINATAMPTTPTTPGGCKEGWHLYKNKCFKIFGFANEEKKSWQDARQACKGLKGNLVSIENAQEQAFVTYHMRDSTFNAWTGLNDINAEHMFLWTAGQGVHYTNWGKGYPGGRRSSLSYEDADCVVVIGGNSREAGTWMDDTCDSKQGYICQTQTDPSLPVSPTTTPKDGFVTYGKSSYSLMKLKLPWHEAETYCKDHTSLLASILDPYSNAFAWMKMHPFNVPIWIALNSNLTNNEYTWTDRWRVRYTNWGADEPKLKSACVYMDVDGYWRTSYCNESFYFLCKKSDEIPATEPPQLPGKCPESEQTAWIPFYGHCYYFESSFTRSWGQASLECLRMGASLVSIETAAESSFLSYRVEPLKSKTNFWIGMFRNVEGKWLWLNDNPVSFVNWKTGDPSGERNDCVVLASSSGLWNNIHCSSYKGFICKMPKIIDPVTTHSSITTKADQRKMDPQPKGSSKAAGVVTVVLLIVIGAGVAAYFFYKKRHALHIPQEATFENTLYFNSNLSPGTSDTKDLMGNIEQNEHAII

The substance “IQ motif containing GTPase activating protein 2 (IQGAP2) (from UniProt Q3UQ44 1-1575)” returned a fold enriched in CD206 complexes against control of 76 fold.

“IQ motif containing GTPase activating protein 1 (IQGAP1) (from UniProt Q9JKF1 2-1657)” returned a fold enriched in CD206 complexes against control of 9 fold.
